Source: publication doi:10.1101/2022.11.10.515925 (bioRxiv, 2022)

B1: KIF20A 55-665 (dimeric motor construct) (domain or fragment, mouse, UniProt P97329 55-665, looked up)
chain: ALLEDTSEKVKVYLRIRPFLTSELDRQEDQGCVCIENTETLVLQAPKDSFALKSNERGVGQATHKFTFSQIFGPEVGQVAFFNLTMKEMVKDVLKGQNWLIYTYGVTNSGKTYTIQGTSKDAGILPQSLALIFNSLQGQLHPTPDLKPLLSNEVIWLDSKQIRQEEMKKLSLLIGGLQEEELSTSVKKRVHTESRIGASNSFDSGVAGLSSTSQFTSSSQLDETSQLWAQPDTVPVSVPADIRFSVWISFFEIYNELLYDLLEPPSHQHKRQTLRLCEDQNGNPYVKDLNWIHVRDVEEAWKLLKVGRKNQSFASTHMNQQSSRSHSIFSIRILHLQGEGDIVPKISELSLCDLAGSERCKHQKSGERLKEAGNINTSLHTLGRCIAALRQNQQNRSKQNLIPFRDSKLTRVFQGFFTGRGRSCMIVNVNPCASTYDETLHAAKFSALASQLVHAPPVHLGIPSLHSFIKKHSPQVGPGLEKEDKADSDLEDSPEDEADVSVYGKEELLQVVEAMKALLLKERQEKLQLEIQLREEICNEMVEQMQQREQWCSERLDNQKELMEELYEEKLKILKESLTTFYQEQIQERDEKIEELETLLQEAKQQPAAQQ
B2: KIF20A 55-665 Δ(518-549) (dimeric motor, shortened neck linker) (domain or fragment, mouse, UniProt P97329 55-665, looked up)
chain: ALLEDTSEKVKVYLRIRPFLTSELDRQEDQGCVCIENTETLVLQAPKDSFALKSNERGVGQATHKFTFSQIFGPEVGQVAFFNLTMKEMVKDVLKGQNWLIYTYGVTNSGKTYTIQGTSKDAGILPQSLALIFNSLQGQLHPTPDLKPLLSNEVIWLDSKQIRQEEMKKLSLLIGGLQEEELSTSVKKRVHTESRIGASNSFDSGVAGLSSTSQFTSSSQLDETSQLWAQPDTVPVSVPADIRFSVWISFFEIYNELLYDLLEPPSHQHKRQTLRLCEDQNGNPYVKDLNWIHVRDVEEAWKLLKVGRKNQSFASTHMNQQSSRSHSIFSIRILHLQGEGDIVPKISELSLCDLAGSERCKHQKSGERLKEAGNINTSLHTLGRCIAALRQNQQNRSKQNLIPFRDSKLTRVFQGFFTGRGRSCMIVNVNPCASTYDETLHAAKFSALASQLVHAPPVHLGIPDEADVSVYGKEELLQVVEAMKALLLKERQEKLQLEIQLREEICNEMVEQMQQREQWCSERLDNQKELMEELYEEKLKILKESLTTFYQEQIQERDEKIEELETLLQEAKQQPAAQQ
B3: KIF20A 25-665 (dimeric motor construct) (domain or fragment, mouse, UniProt P97329 25-665, looked up)
chain: ESTAADLRSVVRKDLLSDCSVISASLEDKQALLEDTSEKVKVYLRIRPFLTSELDRQEDQGCVCIENTETLVLQAPKDSFALKSNERGVGQATHKFTFSQIFGPEVGQVAFFNLTMKEMVKDVLKGQNWLIYTYGVTNSGKTYTIQGTSKDAGILPQSLALIFNSLQGQLHPTPDLKPLLSNEVIWLDSKQIRQEEMKKLSLLIGGLQEEELSTSVKKRVHTESRIGASNSFDSGVAGLSSTSQFTSSSQLDETSQLWAQPDTVPVSVPADIRFSVWISFFEIYNELLYDLLEPPSHQHKRQTLRLCEDQNGNPYVKDLNWIHVRDVEEAWKLLKVGRKNQSFASTHMNQQSSRSHSIFSIRILHLQGEGDIVPKISELSLCDLAGSERCKHQKSGERLKEAGNINTSLHTLGRCIAALRQNQQNRSKQNLIPFRDSKLTRVFQGFFTGRGRSCMIVNVNPCASTYDETLHAAKFSALASQLVHAPPVHLGIPSLHSFIKKHSPQVGPGLEKEDKADSDLEDSPEDEADVSVYGKEELLQVVEAMKALLLKERQEKLQLEIQLREEICNEMVEQMQQREQWCSERLDNQKELMEELYEEKLKILKESLTTFYQEQIQERDEKIEELETLLQEAKQQPAAQQ
B4: KIF20A 55-665 Δ(535-549) (dimeric motor, shortened neck linker) (domain or fragment, mouse, UniProt P97329 55-665, looked up)
chain: ALLEDTSEKVKVYLRIRPFLTSELDRQEDQGCVCIENTETLVLQAPKDSFALKSNERGVGQATHKFTFSQIFGPEVGQVAFFNLTMKEMVKDVLKGQNWLIYTYGVTNSGKTYTIQGTSKDAGILPQSLALIFNSLQGQLHPTPDLKPLLSNEVIWLDSKQIRQEEMKKLSLLIGGLQEEELSTSVKKRVHTESRIGASNSFDSGVAGLSSTSQFTSSSQLDETSQLWAQPDTVPVSVPADIRFSVWISFFEIYNELLYDLLEPPSHQHKRQTLRLCEDQNGNPYVKDLNWIHVRDVEEAWKLLKVGRKNQSFASTHMNQQSSRSHSIFSIRILHLQGEGDIVPKISELSLCDLAGSERCKHQKSGERLKEAGNINTSLHTLGRCIAALRQNQQNRSKQNLIPFRDSKLTRVFQGFFTGRGRSCMIVNVNPCASTYDETLHAAKFSALASQLVHAPPVHLGIPSLHSFIKKHSPQVGPGLDEADVSVYGKEELLQVVEAMKALLLKERQEKLQLEIQLREEICNEMVEQMQQREQWCSERLDNQKELMEELYEEKLKILKESLTTFYQEQIQERDEKIEELETLLQEAKQQPAAQQ
B5: KIF20A 1-665 (dimeric motor construct) (domain or fragment, mouse, UniProt P97329 1-665, looked up)
chain: MSHRILSPPAGLLSDEDVVDSPILESTAADLRSVVRKDLLSDCSVISASLEDKQALLEDTSEKVKVYLRIRPFLTSELDRQEDQGCVCIENTETLVLQAPKDSFALKSNERGVGQATHKFTFSQIFGPEVGQVAFFNLTMKEMVKDVLKGQNWLIYTYGVTNSGKTYTIQGTSKDAGILPQSLALIFNSLQGQLHPTPDLKPLLSNEVIWLDSKQIRQEEMKKLSLLIGGLQEEELSTSVKKRVHTESRIGASNSFDSGVAGLSSTSQFTSSSQLDETSQLWAQPDTVPVSVPADIRFSVWISFFEIYNELLYDLLEPPSHQHKRQTLRLCEDQNGNPYVKDLNWIHVRDVEEAWKLLKVGRKNQSFASTHMNQQSSRSHSIFSIRILHLQGEGDIVPKISELSLCDLAGSERCKHQKSGERLKEAGNINTSLHTLGRCIAALRQNQQNRSKQNLIPFRDSKLTRVFQGFFTGRGRSCMIVNVNPCASTYDETLHAAKFSALASQLVHAPPVHLGIPSLHSFIKKHSPQVGPGLEKEDKADSDLEDSPEDEADVSVYGKEELLQVVEAMKALLLKERQEKLQLEIQLREEICNEMVEQMQQREQWCSERLDNQKELMEELYEEKLKILKESLTTFYQEQIQERDEKIEELETLLQEAKQQPAAQQ

Molecular target: the molecule itself
Assay: SEC-MALS

Stoichiometry N, 2:
B1, B2, B3, B4, B5
